Results published in publication PMC11321386 (Blood advances, 2024).

Target: GPVI-Fc dimer (UniProt Q9HCN6)
Assay: ELISA

binding result: binds
B1: nanobody 2 (Nb2) (VHH)
VHH: QVQLQESGGGLVQPGGSLRLSCAAAGFTFDYYAIAWFRQAPGKEREGVSCISSSDGTTYYADSVKGRFTISKDNAKNTMYLQMNSLKPEDTAVYYCATSPLYSTNDRCISEDYDYWGQGTQVTVSS
